Molecular target: T1, S.cerevisiae Rad51 (1-226) + H.sapiens Rad51 (168-339) (UniProt P25454+Q06609)
T1 construct: S.cerevisiae Rad51 (1-226) +; H.sapiens Rad51 (168-339); expressed in transfected cells
Experiment: Y2H assay, RAD51 hybrid constructs
Type: binding
Set-up: key: cells having the interaction would survive (+); cells not having the interaction would die (−) on selective media (−ADE, −HIS)
Method: RAD51-binding peptides were tested for ability to bind RAD51 of several different species using a “conventional” Y2H assay, where interaction between the two-hybrid pair drove expression of ADE2 and HIS genes. In this Y2H assay the two-hybrid pair was RAD51 and the compound 5 peptide sequence (SEQ ID NO.: 5), so that cells having the interaction would survive (+) and cells not having the interaction would die (−) on selective media (−ADE, −HIS).
Based on sequence comparisons of S. cerevisiae and H. sapiens RAD51, multiple cerevisiae-sapiens hybrid constructs of RAD51 were constructed and tested for their ability to bind RAD51-binding peptide in the same RAD51/SEQ ID NO.: 5 hybrid system described above.

T1 sequence (P25454 1-226): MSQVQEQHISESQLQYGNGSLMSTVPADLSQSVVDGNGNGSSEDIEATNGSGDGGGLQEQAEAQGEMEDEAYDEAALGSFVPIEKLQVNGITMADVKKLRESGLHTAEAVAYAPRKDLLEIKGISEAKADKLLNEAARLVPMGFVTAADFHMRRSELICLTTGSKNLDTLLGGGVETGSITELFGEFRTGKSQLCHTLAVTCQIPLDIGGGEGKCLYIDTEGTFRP
T1 sequence (Q06609 168-339): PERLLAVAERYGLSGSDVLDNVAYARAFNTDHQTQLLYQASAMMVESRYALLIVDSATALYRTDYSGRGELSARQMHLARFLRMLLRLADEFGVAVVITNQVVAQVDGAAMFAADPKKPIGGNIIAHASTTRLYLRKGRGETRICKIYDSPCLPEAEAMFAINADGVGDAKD

KRRRRRRRKRLGVRLRVSRML [SEQ ID NO.: 5]
SEQ ID NO.: 5 Binding: +
